Results as given in the nanobody polyreactivity screen of Harvey et al. (2022).

experiment: yeast display, Sf9 membrane polyspecificity reagent, FACS + sequencing; frameworks hold sequencing errors
How it was run: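 After 36–48 hours of galactose induction, yeast (Saccharomyces cerevisiae BJ5465) displaying a synthetic nanobody library were stained at 4 °C for 1 hour with 10% biotinylated, detergent-solubilized Sf9 membrane reagent. Streptavidin microbeads enriched the stained cells before FACS sorting into low and high (top ~1%) gates on anti-HA and streptavidin fluorescence. Each clone's polyreactivity label reflects its gate of origin.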

Sequence | polyreactivity (PSR sort gate)
QVQVVESGGGLVQAGGSLRLSCAASGSTFGVYAMGWYRQAPGKEWELVAAISASTGSTYYADSVKGRFTISRDNAKQTVYLQMNSRKPEHTAVYYCAAAGYGKVRGDYWGQGTQVTVTS | low polyreactivity
QVQVVESGGGLVQAGGSLRLSCAASGYIINQYTMGWYRQAPGKERELVADNSSGGSTTYADSVKGRFTISRDNAKNTVYLQMNSLKTEHTAVYYCNAEYDSGSPTAYDWEYDYWGHGTQVTVSS | high polyreactivity
QVQVVESGGGLVQAGGSLRLSSAASGSTFNYNAMGWYRQAPGKERELVAAITNGGSTSYADSVKGRFTISRDNAKNTVYLQMNSLKPEDTAVYYCNADEDLRGYDYWGQGTQVTVSS | low polyreactivity
QVQVVESGGGLVQEGGSLRLSCAASGSTFGINAMGWYRPAPGKEREWVAAITSTGRTYYADSVKGRFTNSRDNAKNTVYLQMNSLKPEDTAVYYCAAVWRYKGLLLPSYYYWGQGTQVTVSS | high polyreactivity
QVQVVESGGGLVQTGGSLRLSCAASGSTFRRYDMGWYRPAPGKEWELVAAISVSGGNTYYADSVKGRFTISRDNAKNTVYLQMNSLKPEDTAVYYCATSRWVDNKYTLRSRYYYWGQGTQVTVSS | high polyreactivity
QVQVVESRGGLVQAGGRLRLSCAASGSTFGVNAMGWYRTAPGKERELVAAISYTGGSTYYADSVKGRFTISRDNAKNTVYLQMNSLKAEHTAVSYCAVEVGYTDSPYSYDYWGQGTQVTVSS | low polyreactivity
QVQVVETGGGLVQAGGSLRLSCAPSGITFVTYAMGWYRQAPGKERELVAAISRSGGRTYYADSVNVRFTISRDNAKNTVYLQMNSLKPEDTAVYYCAAERKNKYDYWGQGTQVTVSS | high polyreactivity
QVQVVKSGGGLVQAGGSLSLSCAASGRTFGVYAMGWYRQAPGNESELVAGIRWRGGSTYYADSVKGRFTISRDNSKNTVYLQMKSLKPEETAVYYCAADVDLVKDDYWGQGTQVTVSS | low polyreactivity
QVRLVESGGGLVQAGGSLRLSCAASGRTLFVYDMGWYRQAPGKERELVAAISTGDDTNYADSVKGRFTISRDNAKNTVYLQMNSLKPEDTAVYYCNALYYTYPYWGYPSDYNLDYWGQGTQVTVSS | low polyreactivity
QVRLVESGGGLVQAGGSLRLSCAASGSTFKTYAMGWYRQAPGIERELVAAISAGGGSTYYADSVKGRFTISRDNAKNTVYLQMNSLKPEDTAVYYCAAAYIYAGWDYEYGGQGTQVTVSS | low polyreactivity
RSGGGLVQAGGSLRLSCAPSGRIFKINAMGWYRQPPGKERALVARITRGGSTYYADSVKGRFTISRDNATNTVYLQMTSVKPEDTAVYYCAADDTGPYSNSYDYWGQGTQVTFSS | low polyreactivity
RVQLQESGGGLVQAGGSLRLSCAASGTIFIRGDMGWYRQAPGKEREFVATIDTGSNTYYADSEKGRFTISRDNATNAVYLHMNCLKPGDTAFYYCVVDYQLSGRLRYWGQGTQVTLSS | low polyreactivity
RVQLVESGGGLVQAGGSLRLSCAASGRIFDNYVMGCYRQAPGKDRELLAAISSGGGTYYADSVKGRFTISRDNAMNTVYLQMNSLKPEDTAVYFCAKRRVYDRSFGRYDYWGQGTQVTGSS | low polyreactivity
RVQLVESGGGLVQAGGSLRLSCAASGSTFLVYAMGWYRQAPGKERELVAVIRWRDGSTYYADSVKGRFTISRDNAKNTVYLQLNSLKPEDTAVYYCAAVYWGEEYEYWGQGTQVTVSS | low polyreactivity
